According to patent US7264932B2, “Nuclease inhibitor cocktail” (Applera Corporation, priority 1999, dated 2007):

Key:
[1] = tested on: total RNase activity in murine kidney plus pancreatic lysate; assay: Proteinase K inactivation of total RNase activity in kidney lysate with pancreatic lysate; assay type: biochemical; details: 600 ng/uL PK
Experimental: Murine kidney (40 ul of 0.1 mg/ul) was introduced into a 50 uL reaction with a dilute pancreatic lysate (1 or 10 ul of pancreas at 0.1 mg/ul) prepared in 24 mM Hepes, pH 7.2, 50 mM NaCl, 1 MM MgCl2. All samples were digested at 50C for 5 min in PK buffer at 23C. […] Although proteinase K is a protein-based inhibitor, RNase inactivation occurs by a very different mechanism than a protein inhibitor such as RIP, since proteinase K digests RNase proteins to peptide fragments, thereby destroying the folded (active) conformation of the enzyme.

bovine RNase A = target: T1, bovine RNase A (Bos taurus, UniProt P61823); assay: Intactness of total RNA (RNA LabChip), bovine RNase A; assay type: biochemical; details: 0.2u/ul rip, 5 pg/ul bovine rnase a, e. coli total rna, room temperature 4 min
T1 sequence (P61823 27-150): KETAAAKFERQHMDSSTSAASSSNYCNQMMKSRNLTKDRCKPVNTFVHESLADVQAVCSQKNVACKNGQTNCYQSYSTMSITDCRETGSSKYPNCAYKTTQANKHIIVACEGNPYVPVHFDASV
Experimental: A total of 100 pg/ul e. […].
Mouse pancreatic tissue (5 mg) was disrupted in 50 ul of 24 mM Hepes, pH 7.2, 50 mM NaCl, 1 mM MgCl2. The diluted lysate (1:20,000) was pre-incubated with 50 uM Benzopurpurin B (BpB) for 30 sec and then added to 100 ng/ul mouse liver total RNA (Ambion) and incubated at 23 C for an additional 4 min. Samples were quenched in a guanidinium lysis buffer, and the RNA purified via MEGAclear™ MAG-96 and eluted with 20 ul nuclease-free water. […] These experiments were conducted in the same fashion except that 100 uM BpB was employed. The sample (1 ul) was analyzed by 2100 BioAnalyzer software (Agilent) after separation on an RNA LabChip.
Pancreatic tissue (5 mg) was dounced in 50 ul of 24 mM Hepes, pH 7.2, 50 mM NaCl, 1 mM MgCl2. The lysate was diluted (1:20,000) and then pre-incubated with 200 uM of 467929. […] All samples were pre-incubated for 30 sec before being added to 100 ng/ul mouse liver total RNA (Ambion) and incubated at 23C for an additional 4 min. The RNA was then immediately purified via MEGAclear™ MAG-96 and eluted with 20 ul nuclease-free water. The recovered RNA (1 ul) was analyzed by 2100 BioAnalyzer software after separation on an RNA LabChip.

[2] = tested on: total RNase activity in pancreas lysate; assay: RNaseAlert fluorescent assay, pancreas lysate; assay type: biochemical, mouse; details: Pancreas, 0.5 U/ul RIP
Experimental: (§1) Flash-frozen mouse tissues (5 mg) were dounced in 50 ul of 24 mM Hepes, pH 7.2, 50 mM NaCl, 1 mM MgCl2. RNase activity was measured using Ambion's fluorescent RNaseAlert™ assay ([…] substrate, 10 ug/ml ultrapure BSA) via BMG POLARstar Optima Fluorometer according to the manufacturer's protocol. In addition to measuring total RNase activity, lysates were treated with Ap5A, heat (90 C for 10 min), or 0.5 U/ul RIP. Tissue lysate dilutions: pancreas 1:16,200; liver 1:17; thymus 1:17; kidney 1:17; spleen 1:810; lung 1:810. The data were normalized to maximum RNase activity observed in tissue lysate with kidney being the tissue with the lowest RNase activity and assigned the arbitrary unit of 1. […] However, RIP is specific to RNase A superfamily enzymes, where Ap5A, as a RNA analogue, is expected to be a more general RNase inhibitor.
Pancreatic tissue (5 mg) was dounced in 50ul of 24 mM Hepes, pH 7.2, 50 mM NaCl, 1 mM MgCl2. Diluted pancreas lysate (1:12,000) was subjected to a 1/10 volume of negatively charged SP resin. RNase activity of the clarified lysate was measured using. Ambion's fluorescent RNaseAlert™ assay (40 nM substrate, 10 ug/ml ultrapure BSA) via BMG POLARstar Optima, according to the manufacturer's instructions. Resin treatment removed >95% of total RNase activity in diluted pancreas lysate. […]

[3] = tested on: total RNase activity in spleen lysate; assay: RNaseAlert fluorescent assay, spleen lysate; assay type: biochemical, mouse; details: 0.5 U/ul RIP
Experimental: as §1

[4] = tested on: total RNase activity in lung lysate; assay: RNaseAlert fluorescent assay, lung lysate; assay type: biochemical, mouse; details: 0.5 U/ul RIP
Experimental: as §1

Molecule | Fold Reduction ([1]; 1 uL pancreas) | Slope ([1]; 1 uL pancreas) | Fold Reduction ([1]; 10 uL pancreas) | Slope ([1]; 10 uL pancreas) | Slope ([1]; No pancreas) | protection of total RNA from degradation (bovine RNase A) | % Inhibition [2] | Slope/sec Final (After RIP addition) [2] | % Inhibition [3] | Slope/sec Final (After RIP addition) [3] | % Inhibition [4] | Slope/sec Final (After RIP addition) [4]
PK: proteinase K, protease that digests RNase proteins to peptide fragments (protein, UniProt P06873 106-384, looked up) Proteinase K: AAQTNAPWGLARISSTSPGTSTYYYDESAGQGSCVYVIDTGIEASHPEFEGRAQMVKTYYYSSRDGNGHGTHCAGTVGSRTYGVAKKTQLFGVKVLDDNGSGQYSTIIAGMDFVASDKNNRNCPKGVVASLSLGGGYSSSVNSAAARLQSSGVMVAVAAGNNNADARNYSPASEPSVCTVGASDRYDRRSSFSNYGSVLDIFGPGTSILSTWIGGSTRSISGTSMATPHVAGLAAYLMTLGKTTAASACRYIADTANKGDLSNIPFGTVNLLAYNNYQA | 1283 | 0.0938 RFU/sec | 242 | 0.6074 RFU/sec | 0.0123 RFU/sec | – | – | – | – | – | – | –
RIP: human placental RNase Inhibitor Protein (protein, UniProt P13489 2-461, looked up) Ribonuclease inhibitor: SLDIQSLDIQCEELSDARWAELLPLLQQCQVVRLDDCGLTEARCKDISSALRVNPALAELNLRSNELGDVGVHCVLQGLQTPSCKIQKLSLQNCCLTGAGCGVLSSTLRTLPTLQELHLSDNLLGDAGLQLLCEGLLDPQCRLEKLQLEYCSLSAASCEPLASVLRAKPDFKELTVSNNDINEAGVRVLCQGLKDSPCQLEALKLESCGVTSDNCRDLCGIVASKASLRELALGSNKLGDVGMAELCPGLLHPSSRLRTLWIWECGITAKGCGDLCRVLRAKESLKELSLAGNELGDEGARLLCETLLEPGCQLESLWVKSCSFTAACCSHFSSVLAQNRFLLELQISNNRLEDAGVRELCQGLGQPGSVLRVLWLADCDVSDSSCSSLAATLLANHSLRELDLSNNCLGDAGILQLVESVRQPGCLLEQLVLYDIYWSEEMEDRLQALEKDKPSLRVIS | – | – | – | – | – | significant protection | 99.7% | 0.17 | 98.0% | 1.08 | 99.3% | 0.21
